Laboratory results from US12649778.
Positions count from the first letter of the chain named. Names and notes keep the numbering of the source. Values joined by “and” are separate entries in the source; they are usually repeats but may differ in a detail not shown here. Equal values may be shown once.

B1: 65D3 chimeric Fab, NNK library L3 mutant S to A (VL S25A) (Fab, V domains shown)
VH: QSLEESGGRLVTPGGSLTLTCTVSGFSLSTHDISWVRQAPGKGLEWIGVIARRGSTYYASWAKGRFTISKTSTTVDLKITSPTIEDTATYFCAREEFDFWGQGTLVTVSS
VL: AVLTQTASPVSAAVGGTVTISCQSAQSVYNNKELSWFQQKPGQPPKLLISYASTLASGVPSRFKGSGSGTQFTLTISDLECDDAATYYCLGGYASTIDMWAFGGGTEVVVK
B2: 65D3 chimeric Fab, NNK library L3 mutant S to R (VL S25R) (Fab, V domains shown)
VH: B1 VH
VL: B1 VL with A25R
B3: 65D3 chimeric Fab, NNK library L3 mutant S to L (VL S25L) (Fab, V domains shown)
VH: B1 VH
VL: B1 VL with A25L
B4: 65D3 chimeric Fab, NNK library L3 mutant S to T (VL S25T) (Fab, V domains shown)
VH: B1 VH
VL: B1 VL with A25T
B5: 65D3 chimeric Fab, NNK library L3 mutant S to H (VL S25H) (Fab, V domains shown)
VH: B1 VH
VL: B1 VL with A25H
B6: 65D3 chimeric Fab, NNK library L3 mutant S to K (VL S25K) (Fab, V domains shown)
VH: B1 VH
VL: B1 VL with A25K
B7: 65D3 chimeric Fab, NNK library L5 mutant S to K (VL S27K) (Fab, V domains shown)
VH: B1 VH
VL: B1 VL with A25S, S27K
B8: 65D3 chimeric Fab, NNK library L5 mutant S to M (VL S27M) (Fab, V domains shown)
VH: B1 VH
VL: B1 VL with A25S, S27M
B9: 65D3 chimeric Fab, NNK library L5 mutant S to Y (VL S27Y) (Fab, V domains shown)
VH: B1 VH
VL: B1 VL with A25S, S27Y
B10: 65D3 chimeric Fab, NNK library L5 mutant S to T (VL S27T) (Fab, V domains shown)
VH: B1 VH
VL: B1 VL with A25S, S27T
B11: 65D3 chimeric Fab, NNK library L5 mutant S to F (VL S27F) (Fab, V domains shown)
VH: B1 VH
VL: B1 VL with A25S, S27F
B12: 65D3 chimeric Fab, NNK library L5 mutant S to V (VL S27V) (Fab, V domains shown)
VH: B1 VH
VL: B1 VL with A25S, S27V
B13: 65D3 chimeric Fab, NNK library L8 mutant N to K (VL N30K) (Fab, V domains shown)
VH: B1 VH
VL: B1 VL with A25S, N30K
B14: 65D3 chimeric Fab, NNK library L8 mutant N to H (VL N30H) (Fab, V domains shown)
VH: B1 VH
VL: B1 VL with A25S, N30H
B15: 65D3 chimeric Fab, NNK library L18 mutant L to S (VL L55S) (Fab, V domains shown)
VH: B1 VH
VL: B1 VL with A25S, L55S
B16: 65D3 chimeric Fab, NNK library L18 mutant L to N (VL L55N) (Fab, V domains shown)
VH: B1 VH
VL: B1 VL with A25S, L55N
B17: 65D3 chimeric Fab, NNK library L20 mutant S to H (VL S57H) (Fab, V domains shown)
VH: B1 VH
VL: B1 VL with A25S, S57H
B18: 65D3 chimeric Fab, NNK library H25 mutant K to R (VH K63R) (Fab, V domains shown)
VH: B1 VH with K63R
VL: B1 VL with A25S
B19: 65D3 chimeric Fab, NNK library L2 mutant S to G (VL S24G) (Fab, V domains shown)
VH: B1 VH
VL: B1 VL with S24G, A25S
B20: 65D3 chimeric Fab, NNK library L2 mutant S to M (VL S24M) (Fab, V domains shown)
VH: B1 VH
VL: B1 VL with S24M, A25S
B21: 65D3 chimeric Fab, NNK library L2 mutant S to T (VL S24T) (Fab, V domains shown)
VH: B1 VH
VL: B1 VL with S24T, A25S
B22: 65D3 chimeric Fab, NNK library L8 mutant N to R (VL N30R) (Fab, V domains shown)
VH: B1 VH
VL: B1 VL with A25S, N30R
B23: 65D3 chimeric Fab, NNK library L20 mutant S to T (L-S57T) (Fab, V domains shown)
VH: B1 VH
VL: B1 VL with A25S, S57T
B24: 65D3 chimeric Fab, NNK library H17 mutant S to W (H-S55W) (Fab, V domains shown)
VH: B1 VH with S55W
VL: B1 VL with A25S
B25: 65D3 chimeric Fab, NNK library H26 mutant G to K (H-G64K) (Fab, V domains shown)
VH: B1 VH with G64K
VL: B1 VL with A25S
B26: Antibody 74D3-1 (antibody, V domains shown)
VH: QSVEESGGRLVTPGTPLTLTCTVSGIDLSNNAMGWVRQAPGEGLEWIGTIYASGNTYYASWAKGRFAISKTSTTVDLKMTSLTAADTATYFCARLFNIWGPGTLVTVSS
VL: ADIVLTQSPASVSSAVGGTVTINCQASQSVYDNKNLSWFQQKPGQPPKQLIYAASTLASGVPSRFKGSGSGTQFTLTISGMQCDDAATYYCGGRDSGNIYDFGGGTEVVVK

Target: Peptide 1593 (…) (Mycobacterium tuberculosis)
Experiment: ELISA, NNK clone supernatant on coated peptide (22 hits)

Row | Binder | OD450 nm [OD450] | ratio (OD450 to WT OD450)
1 | B1 | 0.972 | 1.21 fold of WT
2 | B2 | 0.963 | 1.19 fold of WT
3 | B3 | 0.954 | 1.18 fold of WT
4 | B4 | 0.956 | 1.19 fold of WT
5 | B5 | 0.95 | 1.18 fold of WT
6 | B6 | 0.982 | 1.22 fold of WT
7 | B7 | 1.16 | 1.49 fold of WT
8 | B8 | 1.14 | 1.47 fold of WT
9 | B9 | 1.12 | 1.44 fold of WT
10 | B10 | 1.11 | 1.43 fold of WT
11 | B11 | 1.11 | 1.43 fold of WT
12 | B12 | 1.09 | 1.41 fold of WT
13 | B13 | 1.04 | 1.37 fold of WT
14 | B14 | 0.957 | 1.26 fold of WT
15 | B15 | 0.968 | 1.3 fold of WT
16 | B16 | 0.937 | 1.26 fold of WT
17 | B17 | 0.596 | 1.25 fold of WT
18 | B18 | 0.872 | 1.4 fold of WT
19 | B19 | 1.11 | 1.33 fold of WT
20 | B20 | 1.09 | 1.31 fold of WT
21 | B21 | 1.07 | 1.29 fold of WT
22 | B22 | 0.958 | 1.26 fold of WT

Target: Peptide 1593 (…) (Mycobacterium tuberculosis)
Experiment: ELISA, NNK clone supernatant on coated peptide

Row | Binder | OD450 nm | ratio (OD450 to WT OD450)
23 | B1 | 0.972 OD450 | 1.21 fold of WT
24 | B2 | 0.963 OD450 and 0.995 OD450 and 1.04 OD450 | 1.19 fold of WT and 1.23 fold of WT and 1.29 fold of WT
25 | B3 | 0.954 OD450 | 1.18 fold of WT
26 | B4 | 0.956 OD450 | 1.19 fold of WT
27 | B5 | 0.95 OD450 and 0.97 OD450 | 1.18 fold of WT and 1.2 fold of WT
28 | B6 | 0.982 OD450 | 1.22 fold of WT
29 | B7 | 1.16 OD450 | 1.49 fold of WT
30 | B8 | 1.16 OD450 and 1.14 OD450 | 1.49 fold of WT and 1.47 fold of WT
31 | B9 | 1.1 OD450 and 1.12 OD450 | 1.41 fold of WT and 1.44 fold of WT
32 | B10 | 1.11 OD450 | 1.43 fold of WT
33 | B11 | 1.11 OD450 | 1.43 fold of WT
34 | B12 | 1.09 OD450 | 1.41 fold of WT
35 | B13 | 1.04 OD450 and 1.03 OD450 | 1.37 fold of WT and 1.35 fold of WT
36 | B14 | 1.02 OD450 and 0.957 OD450 | 1.34 fold of WT and 1.25 fold of WT
37 | B15 | 0.968 OD450 | 1.3 fold of WT
38 | B16 | 0.937 OD450 | 1.26 fold of WT
39 | B23 | 0.977 OD450 | 2.05 fold of WT
40 | B17 | 0.596 OD450 | 1.25 fold of WT
41 | B24 | 1.28 OD450 | 2.06 fold of WT
42 | B18 | 0.872 OD450 | 1.4 fold of WT
43 | B25 | 1.09 OD450 | 1.3 fold of WT
44 | B19 | 1.02 OD450 and 1.11 OD450 | 1.23 fold of WT and 1.33 fold of WT
45 | B20 | 1.15 OD450 and 1.09 OD450 | 1.38 fold of WT and 1.31 fold of WT
46 | B21 | 1.01 OD450 and 1.07 OD450 | 1.21 fold of WT and 1.29 fold of WT

Target: Peptide 2004 (…) (Mycobacterium tuberculosis)
Experiment: not given

Row | Binder | rank by relative ELISA signal across the dilution series (1 = highest)
47 | B26 | 9
